Paper PMC7472703, “DNA methylation suppresses chitin degradation and promotes the wing development by inhibiting Bmara-mediated chitinase expression in the silkworm, Bombyx mori”

T1: Bmara (homeobox protein araucan) (Bombyx mori, UniProt A0A8R1WJM2 5-477)
T1 sequence: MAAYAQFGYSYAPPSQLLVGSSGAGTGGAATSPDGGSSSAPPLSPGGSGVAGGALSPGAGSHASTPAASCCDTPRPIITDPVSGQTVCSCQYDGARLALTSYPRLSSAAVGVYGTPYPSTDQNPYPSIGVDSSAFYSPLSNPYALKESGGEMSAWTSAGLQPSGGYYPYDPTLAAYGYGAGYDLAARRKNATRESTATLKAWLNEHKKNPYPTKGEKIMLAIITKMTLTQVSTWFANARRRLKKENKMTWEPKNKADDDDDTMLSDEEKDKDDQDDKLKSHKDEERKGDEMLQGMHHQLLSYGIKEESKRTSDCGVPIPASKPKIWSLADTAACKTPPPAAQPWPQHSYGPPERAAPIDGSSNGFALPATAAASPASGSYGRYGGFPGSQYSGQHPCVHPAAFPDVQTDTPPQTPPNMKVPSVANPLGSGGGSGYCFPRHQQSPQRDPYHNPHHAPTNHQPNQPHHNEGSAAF


Molecular target: T1, Bmara (homeobox protein araucan)
Assay: EMSA; 5 mM MgCl2, 4 mM EDTA; EMSA: 50 mM KCl, 5 mM MgCl2, 4 mM EDTA, 2.5% glycerol, 0.05% NP-40, 50 ng poly(dI-dC), 20 fmol probe, 20 uL, 20 min RT. Pull-down: 10 mM HEPES pH 7.6, 100 mM K
Conditions: protein: recombinant; tags: 6xHis (pET-28a/32a); label: 5' biotin; blunt

Binder | binding result
Wt CRE probe (BmCHT10 promoter -250 to -225; legend -250 to -221) (dsDNA) DNA 1: TTCAGTCCACGGCTGTCTTTCAACACGGA DNA 2: TCCGTGTTGAAAGACAGCCGTGGACTGAA | binds
Mut-CRE probe (dsDNA) DNA 1: TTCAGTCCACGGCGTGACTTTCGACCGGA DNA 2: TCCGGTCGAAAGTCACGCCGTGGACTGAA | no binding
